# Data published in patent publication US20190015518A1, “DRUG DELIVERY COMPOSITIONS AND METHODS” (priority 2016, published 2019).
# What was measured:
# [1] = Clinical chemistry of a healthy dog given 1.5 mg/kg on day 1 and 2.0 mg/kg on day 70, sub-mucosa; type: in vivo
# Description: Before each dose, the dog was examined by clinical chemistry, hematology, and urinalysis. Additional examinations of clinical chemistry and hematology were performed on days 7, 14, and 42 after the first dose. Additional tests of urinalysis were performed on days 7 and 14 after the first dose. The potential drug-induced toxicities were monitored for 56 days after the second dose. Specifically, clinical chemistry and urinalysis were performed on days 7, 14, 21, and 56, and hematology was performed on days 7, 14, and 56 after the second dose to evaluate the tolerability and toxicity of the formulation.
# Clinical chemistry examinations were performed at pre- and post-dose for both injections. The injections were given via the sub-mucosa in the mouth.
# [2] = system: A2058 (human melanoma) cells; assay: Anti-proliferative activity (Resazurin Blue, 72 hours); type: cell-based; conditions: mean ± S.E.M., cisplatin basis
# Description: (§2) MDA-1986 (human head and neck squamous cell carcinoma), 4T1.2-neu (murine breast cancer cells), and A2058 (human melanoma) cells were maintained in Dulbecco's Modified Eagle Medium (DMEM, Corning, Manassas, Va.) with 4.5 g/L glucose, 4.5 g/L L-glutamine, and 10% fetal bovine serum in a humidified incubator at 37° C. and 5% CO2. Cells were seeded into 96-well plates (3,000 cells/well in 90 μL media) and allowed to attach overnight. […] Resazurin Blue (Acros Organics, Geel, Belgium) in PBS was added to each well (5-μM final concentration; 10-μL addition) and incubated at 37° C. for 4 hours. Fluorescence (λex 550 nm, λem 605 nm) was quantified with a SpectraMax Gemini XS plate-reader (Molecular Devices, Sunnyvale, Calif.). The relative growth of cells incubated with each compound concentration was normalized to vehicle-treated controls (100% proliferation). Data from at least three separate experiments performed in duplicate was analyzed using non-linear regression (GraphPad Prism 5.0) to generate IC50 values.
# [3] = system: MDA-1986 (human head and neck squamous cell carcinoma) cells; assay: as above; type: cell-based; conditions: listed as HA-Lys-Pt 75 kDa
# Description: as §2
# [4] = system: white blood cell DNA; assay: Pt-DNA adduct quantitation in white blood cell DNA; type: in vivo, rat; conditions: cisplatin i.v. 10 mg/kg; HA-Lys-Pt s.c. 10 mg/kg cisplatin basis; 10 mg/kg
# Description: (§1) Whole blood was centrifuged (1500×g, 5 min., 4° C., no brake). Top layer (plasma) and middle layer (white blood cells) were transferred to new tubes. Plasma was frozen (−20° C.) until analysis. […] The white blood cell pellet was washed twice with cold PBS and re-suspended in 9 mL of white blood cell buffer (10-mM Tris, pH 7.4, 2.3% NaCl, 2-mM EDTA), and 900 μL of 1.1-M NH4HCO3, 900 μL of 10% SDS, and 75 μL of 2% Proteinase K were added and incubated at 42° C. overnight. Then, 3.3 mL of 5-M NaCl was added, samples shaken vigorously, and centrifuged twice (3200×g, 5 min, 4° C.), each time discarding the pellet. DNA was pelleted with 20 mL of ice-cold 100% ethanol and centrifuged (3200×g, 5 min, 4° C.); the DNA pellet was washed twice with 75% ethanol, re-suspended in water, and quantitated. DNA was digested in 1% HNO3 (800 μL total volume) overnight at 70° C. DNA samples were diluted 1:10 in 1% HNO3 and plasma samples were diluted 1:10,000 in 1% HNO3. Diluted samples were analyzed for Pt content using ICP-MS with a calibration curve from 1-1000 ppt.
# [5] = system: 4T1.2-neu (murine breast cancer cells); assay: Anti-proliferative activity (Resazurin Blue, 72 hours); type: cell-based; conditions: mean ± S.E.M., cisplatin basis
# Description: as §2
# [6] = Plasma Pt quantitation; conditions: s.c. 10 mg/kg, between 24 and 72 hours
# Description: as §1
substance,measurement,setting,value
HA-cis-[Pt(NH3)2(N^α-Acetyl-L-Lysine)] [75HA-Lys-Pt],ALP elevation,"[1]; 2 mg/kg, 7-days post-dose",0.7 fold
same,ALT elevation,"[1]; 2 mg/kg, 7-days post-dose",4.6 fold
same,AST elevation,"[1]; 2 mg/kg, 7-days post-dose",8.7 fold
same,"ALP, higher than the pre-dose level","[1]; 2 mg/kg, 8-weeks post-dose",0.27 fold
same,Alanine aminotransferase,"[1]; 2 mg/kg, 7 days after",330 U/L
same,Albumin,"[1]; 2 mg/kg, 7 days after",2.5 g/dL
same,Alkaline phosphatase,"[1]; 2 mg/kg, 7 days after",237 U/L
same,Aspartate aminotransferase,"[1]; 2 mg/kg, 7 days after",309 U/L
same,Calcium,"[1]; 2 mg/kg, 7 days after",9.3 mg/dL
same,Cholesterol,"[1]; 2 mg/kg, 7 days after",81 mg/dL
same,Creatine kinase,"[1]; 2 mg/kg, 7 days after",105 U/L
same,Creatinine,"[1]; 2 mg/kg, 7 days after",0.25 mg/dL
same,Gamma glutamyltransferase,"[1]; 2 mg/kg, 7 days after",0 U/L
same,Globulin,"[1]; 2 mg/kg, 7 days after",2.9 g/dL
same,Glucose,"[1]; 2 mg/kg, 7 days after",83 mg/dL
same,Inorganic Phosphorus,"[1]; 2 mg/kg, 7 days after",2.8 mg/dL
same,Total Bilirubin,"[1]; 2 mg/kg, 7 days after",0.3 mg/dL
same,Total Protein,"[1]; 2 mg/kg, 7 days after",5.4 g/dL
same,Triglyceride,"[1]; 2 mg/kg, 7 days after",32 mg/dL
same,Urea Nitrogen,"[1]; 2 mg/kg, 7 days after",11 mg/dL
same,Alanine aminotransferase,"[1]; 2 mg/kg, 14 days after",223 U/L
same,Albumin,"[1]; 2 mg/kg, 14 days after",2.4 g/dL
same,Alkaline phosphatase,"[1]; 2 mg/kg, 14 days after",249 U/L
same,Calcium,"[1]; 2 mg/kg, 14 days after",8.6 mg/dL
same,Cholesterol,"[1]; 2 mg/kg, 14 days after",75 mg/dL
same,Creatine kinase,"[1]; 2 mg/kg, 14 days after",143 U/L
same,Creatinine,"[1]; 2 mg/kg, 14 days after",0.3 mg/dL
same,Gamma glutamyltransferase,"[1]; 2 mg/kg, 14 days after",0 U/L
same,Glucose,"[1]; 2 mg/kg, 14 days after",76 mg/dL
same,Inorganic Phosphorus,"[1]; 2 mg/kg, 14 days after",3.4 mg/dL
same,Total Bilirubin,"[1]; 2 mg/kg, 14 days after",0.1 mg/dL
same,Total Protein,"[1]; 2 mg/kg, 14 days after",5.5 g/dL
same,Triglyceride,"[1]; 2 mg/kg, 14 days after",43 mg/dL
same,Urea Nitrogen,"[1]; 2 mg/kg, 14 days after",14 mg/dL
same,Alanine aminotransferase,"[1]; 2 mg/kg, 21 days after",198 U/L
same,Albumin,"[1]; 2 mg/kg, 21 days after",2.7 g/dL
same,Alkaline phosphatase,"[1]; 2 mg/kg, 21 days after",219 U/L
same,Aspartate aminotransferase,"[1]; 2 mg/kg, 21 days after",129 U/L
same,Calcium,"[1]; 2 mg/kg, 21 days after",9.3 mg/dL
same,Cholesterol,"[1]; 2 mg/kg, 21 days after",70 mg/dL
same,Creatinine,"[1]; 2 mg/kg, 21 days after",0.33 mg/dL
same,Gamma glutamyltransferase,"[1]; 2 mg/kg, 21 days after",0 U/L
same,Glucose,"[1]; 2 mg/kg, 21 days after",64 mg/dL
same,Inorganic Phosphorus,"[1]; 2 mg/kg, 21 days after",3.9 mg/dL
same,Total Bilirubin,"[1]; 2 mg/kg, 21 days after",0.2 mg/dL
same,Total Protein,"[1]; 2 mg/kg, 21 days after",5.8 g/dL
same,Triglyceride,"[1]; 2 mg/kg, 21 days after",39 mg/dL
same,Urea Nitrogen,"[1]; 2 mg/kg, 21 days after",14 mg/dL
same,Alanine aminotransferase,"[1]; 2 mg/kg, 56 days after",220 U/L
same,Albumin,"[1]; 2 mg/kg, 56 days after",3.0 g/dL
same,Alkaline phosphatase,"[1]; 2 mg/kg, 56 days after",173 U/L
same,Aspartate aminotransferase,"[1]; 2 mg/kg, 56 days after",138 U/L
same,Calcium,"[1]; 2 mg/kg, 56 days after",9.7 mg/dL
same,Cholesterol,"[1]; 2 mg/kg, 56 days after",86 mg/dL
same,Creatine kinase,"[1]; 2 mg/kg, 56 days after",117 U/L
same,Creatinine,"[1]; 2 mg/kg, 56 days after",0.3 mg/dL
same,Gamma glutamyltransferase,"[1]; 2 mg/kg, 56 days after",0 U/L
same,Globulin,"[1]; 2 mg/kg, 56 days after",3.3 g/dL
same,Glucose,"[1]; 2 mg/kg, 56 days after",73 mg/dL
same,Inorganic Phosphorus,"[1]; 2 mg/kg, 56 days after",2.5 mg/dL
same,Total Bilirubin,"[1]; 2 mg/kg, 56 days after",0.4 mg/dL
same,Total Protein,"[1]; 2 mg/kg, 56 days after",6.3 g/dL
same,Triglyceride,"[1]; 2 mg/kg, 56 days after",42 mg/dL
same,Urea Nitrogen,"[1]; 2 mg/kg, 56 days after",14 mg/dL
same,Alanine aminotransferase,"[1]; […], 7 days after",36 U/L
same,Albumin,"[1]; […], 7 days after",2.4 g/dL
same,Alkaline phosphatase,"[1]; […], 7 days after",132 U/L
same,Aspartate aminotransferase,"[1]; […], 7 days after",67 U/L
same,Calcium,"[1]; […], 7 days after",8.8 mg/dL
same,Cholesterol,"[1]; […], 7 days after",89 mg/dL
same,Creatine kinase,"[1]; […], 7 days after",93 U/L
same,Creatinine,"[1]; […], 7 days after",0.33 mg/dL
same,Globulin,"[1]; […], 7 days after",2.6 g/dL
same,Glucose,"[1]; […], 7 days after",70 mg/dL
same,Inorganic Phosphorus,"[1]; […], 7 days after",3.3 mg/dL
same,Total Bilirubin,"[1]; […], 7 days after",0.1 mg/dL
same,Total Protein,"[1]; […], 7 days after",5.0 g/dL
same,Triglyceride,"[1]; […], 7 days after",34 mg/dL
same,Urea Nitrogen,"[1]; […], 7 days after",13 mg/dL
same,Alanine aminotransferase,"[1]; […], 14 days",57 U/L
same,Albumin,"[1]; […], 14 days",2.4 g/dL
same,Alkaline phosphatase,"[1]; […], 14 days",116 U/L
same,Aspartate aminotransferase,"[1]; […], 14 days",89 U/L
same,Calcium,"[1]; […], 14 days",9.4 mg/dL
same,Cholesterol,"[1]; […], 14 days",97 mg/dL
same,Creatine kinase,"[1]; […], 14 days",207 U/L
same,Creatinine,"[1]; […], 14 days",0.35 mg/dL
same,Globulin,"[1]; […], 14 days",2.8 g/dL
same,Glucose,"[1]; […], 14 days",80 mg/dL
same,Inorganic Phosphorus,"[1]; […], 14 days",5.5 mg/dL
same,Total Bilirubin,"[1]; […], 14 days",0.0 mg/dL
same,Total Protein,"[1]; […], 14 days",5.2 g/dL
same,Triglyceride,"[1]; […], 14 days",38 mg/dL
same,Urea Nitrogen,"[1]; […], 14 days",19 mg/dL
same,Alanine aminotransferase,"[1]; […], 42 days",74 U/L
same,Albumin,"[1]; […], 42 days",3.0 g/dL
same,Alkaline phosphatase,"[1]; […], 42 days",125 U/L
same,Aspartate aminotransferase,"[1]; […], 42 days",39 U/L
same,Creatine kinase,"[1]; […], 42 days",159 U/L
same,Globulin,"[1]; […], 42 days",2.5 g/dL
same,Total Bilirubin,"[1]; […], 42 days",0.0 mg/dL
same,Total Protein,"[1]; […], 42 days",5.5 g/dL
same,IC50,[2],69.8 ± 7 µM
same,IC50,"[3]; mean ± S.E.M., cisplatin basis",39.8 ± 4.4 µM
same,IC50,[3]; text b180,~21 µM
same,Pt-DNA adduct AUC,[4],4730 pg Pt×h/μg DNA
same,IC50,[5],80.1 ± 12.7 µM
same,plasma Pt plateau concentration,[6],4-5 μg Pt/mL plasma
